Laboratory results taken from paper PMC2133036 (The Journal of Cell Biology, 1998).
Several values for one entry are separate records, joined by “and”; a condition that tells them apart may be missing. Equal entries are not always repeated.

Target: T1, Vma22p (S. cerevisiae, UniProt P38784 1-181)
T1 sequence (looked up): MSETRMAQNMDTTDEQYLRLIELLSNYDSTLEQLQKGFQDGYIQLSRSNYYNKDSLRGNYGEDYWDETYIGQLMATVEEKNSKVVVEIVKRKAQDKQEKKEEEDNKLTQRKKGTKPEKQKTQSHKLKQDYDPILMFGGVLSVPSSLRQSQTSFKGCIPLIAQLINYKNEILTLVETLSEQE
Assay: cross-linking

B1: Vph1p, the 100-kD integral membrane subunit of the V-ATPase (natural protein, S. cerevisiae, UniProt P32563 1-840, looked up)
chain: MAEKEEAIFRSAEMALVQFYIPQEISRDSAYTLGQLGLVQFRDLNSKVRAFQRTFVNEIRRLDNVERQYRYFYSLLKKHDIKLYEGDTDKYLDGSGELYVPPSGSVIDDYVRNASYLEERLIQMEDATDQIEVQKNDLEQYRFILQSGDEFFLKGDNTDSTSYMDEDMIDANGENIAAAIGASVNYVTGVIARDKVATLEQILWRVLRGNLFFKTVEIEQPVYDVKTREYKHKNAFIVFSHGDLIIKRIRKIAESLDANLYDVDSSNEGRSQQLAKVNKNLSDLYTVLKTTSTTLESELYAIAKELDSWFQDVTREKAIFEILNKSNYDTNRKILIAEGWIPRDELATLQARLGEMIARLGIDVPSIIQVLDTNHTPPTFHRTNKFTAGFQSICDCYGIAQYREINAGLPTIVTFPFMFAIMFGDMGHGFLMTLAALSLVLNEKKINKMKRGEIFDMAFTGRYIILLMGVFSMYTGFLYNDIFSKTMTIFKSGWKWPDHWKKGESITATSVGTYPIGLDWAWHGTENALLFSNSYKMKLSILMGFIHMTYSYFFSLANHLYFNSMIDIIGNFIPGLLFMQGIFGYLSVCIVYKWAVDWVKDGKPAPGLLNMLINMFLSPGTIDDELYPHQAKVQVFLLLMALVCIPWLLLVKPLHFKFTHKKKSHEPLPSTEADASSEDLEAQQLISAMDADDAEEEEVGSGSHGEDFGDIMIHQVIHTIEFCLNCVSHTASYLRLWALSLAHAQLSSVLWTMTIQIAFGFRGFVGVFMTVALFAMWFALTCAVLVLMEGTSAMLHSLRLHWVESMSKFFVGEGLPYEPFAFEYKDMEVAVASASSSASS
half-life of the interaction in cells (pulse-chase, cross-linkable Vph1p): < 5 min and ~5 min
